B1: LINE1-full (parent)
chain: UACGUAGGUGGUUUUCCCCUGAUAGUGCUAAGGGGGCCUGGAAGUUUGGACUGGGCAGAGCUCAACACAGCGUGGCAAAGUGGCUGUGGCUAGACUGCCUCUCUGGAUUCCUCGUCACUCAGCAGGGCAUCUCUGAGAGAAAUGCC

The variants in this data set derive from B1. Kind of data set: self-cleavage, relative activity (ratio to wild type); higher = more cleavage; in vitro, sequencing; the parent is a self-cleaving ribozyme.
For U52A A129G, the self-cleavage turned out to be 1.3.

In the case of U52A U85A, the self-cleavage is 0.1.

As to U52A U85G, the self-cleavage is 0.22. With A50C U85C the figure was 0.06; with A50C U85A, 0.04; with C51G, 1.63. With C51A the figure was 1.31; with C51U, 1.3.

G49U: the self-cleavage stood at 0.94.

Consider G49C, for which the self-cleavage came out at 1.15. With A50G G122U the figure was 1.09. With A50G A67G the figure was 0.37; with A50G C145A, 1.05. With U52C C128A the figure was 0.71. With U52C G106U, the self-cleavage was found to be 0.8. With G49C U130C the figure was 1.67. With U52A C131U the figure was 1.46; with U52G A140G, 1.81; with G49A U100C, 1.96. For the variant G49A U115C, the self-cleavage amounted to 1.33. As to U52C A117G, the self-cleavage was 1.04. In the case of U52C A117C, the self-cleavage was determined as 0.42. Regarding C51A A140G, the self-cleavage worked out at 1.04. As to A50C A142G, the self-cleavage worked out at 1.78.

In the case of C51A U109C, the self-cleavage is 1.35. With A50U A59G the figure was 0.04; with A50G G55A, 0.15.

As to A50G U96A, the self-cleavage was determined as 0.04. A50G U96C: the self-cleavage came to 0.1.

In the case of C51A A57G, the self-cleavage amounted to 0.48. With U52G A142G the figure was 0.51; with U52C G75A, 0.9.

Consider A50U G89A, for which the self-cleavage came to 0.02. With A50G A121C the figure was 1.23. With U52C U73A the figure was 1.21; with U52C U73C, 0.54.

As for A50U C120A, the self-cleavage came to 1.46.

Take A50C U130C: the self-cleavage stood at 1.51. With U52C G74U the figure was 1.79; with U52C U100C, 2.25; with U52C U100A, 0.63.

Take U52C C120U: the self-cleavage was determined as 1.77. With U52A U132C the figure was 1.48. With U52A U132A the figure was 1.18. With U52C A138G the figure was 1.48; with U52C A138U, 1.5.

With A50U U96C, the self-cleavage came to 0.1.

For the variant A50U U96G, the self-cleavage amounted to 0.3. With A50U U96A the figure was 0.03.

Take U52C U108C: the self-cleavage was 1.68. With A50U U112A the figure was 1.15; with G49A G72A, 1.45; with U52C A142G, 1.02.

For the variant U52C G82A, the self-cleavage worked out at 1.7. With A50C A94G the figure was 0; with U52A A140G, 1.08. With U52A G144A the figure was 1.44; with U52A U112C, 1.43; with U52C A67G, 0.61. With A50G U85C the figure was 0.1; with A50G U85A, 0.05.

As for U52C G55A, the self-cleavage is 0.14. With G49A U119C the figure was 0.62; with A50G A59U, 0.84; with A50G A59G, 0.26. With U52A A92G the figure was 0.11. In the case of A50C U91C, the self-cleavage worked out at 0.48. For G49A G54A, the self-cleavage was 0.18. For the variant G49A A124G, the self-cleavage is 0.55. With A50U A138U the figure was 1.16; with A50U A138C, 1.21. For A50U G54U, the self-cleavage was 0.66. Consider A50G U91C, for which the self-cleavage is 0.35.

As to A50G A77G, the self-cleavage was found to be 1.42.

For A50G A77U, the self-cleavage came to 0.73.

For A50U U100A, the self-cleavage was determined as 0.31. With A50U U100C the figure was 0.81; with A50U C118U, 1.02; with G49A U62C, 0.03.

Consider A50C A124G, for which the self-cleavage came to 1.29. Turning to U52A G137A, the self-cleavage was 0.99. With U52A G137U the figure was 1.06; with G49A U112C, 1.45. With C51U A140G the figure was 1.09; with A50G U109C, 0.96. On to A50G U109A, for which the self-cleavage was 0.84. With G49U A78G the figure was 0.91; with U52C U96C, 0.02. With U52C G126A the figure was 1.18. With U52C G126U the figure was 1.31; with A50U C66U, 0.01; with G49A U52C, 1.35. In the case of U52A A142G, the self-cleavage came out at 1.46. With G49A A117U the figure was 1.05. With C51U U96C the figure was 0.12; with C51U C145G, 1.28; with U52A U109C, 1.21. With A50G A107G the figure was 1.1; with C51A G53A, 1.92; with A50G U143A, 1.7. For A50G U143C, the self-cleavage was determined as 0.95. With A50G U119C the figure was 1.11.

With G49A U130C, the self-cleavage worked out at 1.55. With A50G A92G the figure was 0.19; with U52A G127A, 1.63; with A50C A117U, 0.92. With G49U U109C the figure was 0.95; with U52C C84U, 0.15; with U52G U91C, 1.23.

For the variant U52G A124G, the self-cleavage was 1.57.

In the case of G49C U115C, the self-cleavage was determined as 2.02. With U52C U134A the figure was 1.07. With U52C G80A the figure was 1.82; with A50U A136U, 1.21. C51A A67U: the self-cleavage came out at 0.1.

Take C51A A67G: the self-cleavage came to 0.63. On to U52C U115C, for which the self-cleavage is 1.64. On to U52A C113A, for which the self-cleavage was 1.24. With A50G A57U the figure was 0.14.

Take A50G A57G: the self-cleavage was 0.32. With U52C G53U the figure was 1.6; with A50U U87A, 0.1. With A50U U87C the figure was 0.23. With U52C U91G the figure was 0.17; with A50G G53A, 1.09.

Consider A50G G53U, for which the self-cleavage is 0.

As to G49U A142G, the self-cleavage was 0.85. With U52C U112A the figure was 0.99. With A50G U130C the figure was 1.05. With C51U A67C the figure was 0.05; with G49U G127A, 0.27. In the case of A50G A79U, the self-cleavage came out at 1.09. For the variant A50U A69U, the self-cleavage is 0.07. With U52G U87C the figure was 0.69.

For the variant A50G C113A, the self-cleavage was 0.35.

With U52A C99U, the self-cleavage stood at 0.64. With A50C U132C the figure was 1.02. With U52C A136G the figure was 2.9; with U52C A136U, 0.81. With U52G U85A the figure was 0.17; with A50G A140G, 0.94; with A50G A140U, 0.93.

For A50G C128U, the self-cleavage stood at 0.36. As to G49U U134A, the self-cleavage was 1.19. In the case of G49U U134C, the self-cleavage was determined as 1.63. Regarding A50U U108G, the self-cleavage stood at 1.11.

As for A50G C61U, the self-cleavage came out at 0.05. With A50U G80C the figure was 0.82; with U52A C111A, 1.25.

For the variant C51U A79G, the self-cleavage is 1.53. Take A50U G55A: the self-cleavage came out at 0.08.

For G49U A94U, the self-cleavage was 0.32. Consider U52C U62G, for which the self-cleavage came out at 0.

For A50C U73G, the self-cleavage was determined as 0.79. With U52A A77G the figure was 2.06; with A50U U73A, 0.89. With A50U A94G the figure was 0.29. With U52G A141G the figure was 1.72; with U52C C71A, 0.13. For U52A G54U, the self-cleavage amounted to 1.84. With A50G G88A the figure was 0.06. For U52C A129U, the self-cleavage was 1.61. Consider U52A U91G, for which the self-cleavage worked out at 0.08.

For U52C A78G, the self-cleavage was 1. With G49U U62C the figure was 0.08. With U52A G58A the figure was 0. With U52A A64U the figure was 0.46.

These data come from the RNAGym collection of RNA variant scans (doi:10.7554/elife.90254).
